Assay results as given in patent US20140123330.

Test system: btGDF83.1 TALEN pair (synthetic (TALE-FokI))
Test: cell_activity
Settings: SURVEYOR; bovine fibroblasts; active at 30 and 37 C; pair called btGDF8.1 and btGDF83.1

bovine GDF8 exon 3 target
activity (% chromosomes cleaved): < 16
